Patent publication US20200115460A1 (TEIJIN PHARMA, published 2020)

What was measured:
[1] = molecular target: T1, wild-type rat IGF-I receptor (FLAG tag, Example 7) (rat, UniProt P24062 31-1370); experiment: Cell ELISA, 1 nM antibody, fixed HEK 293T cells
T1 construct: Expressed on transfected HEK 293T cells
Protocol: (§1) On the next day, each plasmid DNA was transfected into the cells by lipofection. On the following day, the HEK 293T cells were detached with 0.25% trypsin/EDTA and were suspended in a broth. The HEK 293T cells were added to a 96-well plate (coated with poly-D-lysine) at a concentration of 0.8×10⁵ cells/well and were incubated at 37° C. under conditions of 5% CO₂ overnight. The medium was removed from the 96-well plate, and the cells were immobilized with a 10% buffered formalin (Mildform® 10 NM, Wako). The 10% buffered formalin was replaced with a blocking buffer (3% BSA/PBS/sodium azide), and the plate was used in ELISA.
(§2) After washing with a washing liquid twice, anti-mouse-IgG antibody-HRP conjugate solutions (50 μL) adjusted to predetermined concentrations with 0.1% skimmed milk/3% BSA/PBS were added to respective wells and were subjected to reaction at room temperature for about 1 hour. After washing with a washing liquid twice, 100 μL of a substrate (TMB) was added to each well to start the reaction. After about 30 minutes, 100 μL of 0.5 M sulfuric acid was added to each well to stop the reaction, and the absorbances at 450 nm was measured. The value of the absorbance at 450 nm was evaluated as the avidity.

[2] = molecular target: T2, Substitution 1 of the CR domain (human IGF-I receptor D245N/A247T, FLAG tag) (human, UniProt P08069 31-1367); experiment: Cell ELISA, 1 nM antibody, fixed HEK 293T cells
T2 construct: Expressed on transfected HEK 293T cells
Protocol: as §1, §2

[3] = molecular target: T3, Substitution 2 of the CR domain (human IGF-I receptor E294D, FLAG tag) (human, UniProt P08069 31-1367); experiment: Cell ELISA, 1 nM antibody, fixed HEK 293T cells
T3 construct: Expressed on transfected HEK 293T cells
Protocol: as §1, §2

[4] = molecular target: T4, wild-type human IGF-I receptor (FLAG tag, Example 7) (human, UniProt P08069 31-1367); experiment: Cell ELISA, 1 nM antibody, fixed HEK 293T cells
T4 construct: Expressed on transfected HEK 293T cells
Protocol: as §1, §2

[5] = molecular target: T5, Substitution 3 of the CR domain (human IGF-I receptor G315S/S316T, FLAG tag) (human, UniProt P08069 31-1367); experiment: Cell ELISA, 1 nM antibody, fixed HEK 293T cells
T5 construct: Expressed on transfected HEK 293T cells
Protocol: as §1, §2

human insulin receptor = molecular target: T6, human insulin receptor (human, UniProt P06213 28-1382); experiment: Cell ELISA on HEK 293T cells expressing human insulin receptor
T6 construct: whole, on cells; Expressed on transfected HEK 293T cells; also called INSR; hINSR
Protocol: The HEK 293T cells after the lipofection were added to a 96-well plate (coated with poly-D-lysine) at a concentration of 0.8×10⁵ cells/well (about 180 μL/well) and were immobilized with 10% buffered formalin (Mildform® 10 NM, Wako), followed by blocking with phosphate buffer containing 3% BSA. The plate was used in ELISA.
In ELISA, antibody solutions (30 μL) adjusted to predetermined concentrations with 0.1% skimmed milk/3% BSA/PBS were added to respective wells and were subjected to reaction at room temperature for about 1 hour. After washing with a washing liquid (tris buffer containing Tween) twice, anti-mouse-IgG antibody-ALP conjugate solutions (30 μL) adjusted to predetermined concentrations with 0.1% skimmed milk/3% BSA/PBS were added to respective wells and were subjected to reaction at room temperature for about 1 hour. After washing with a washing liquid twice, 100 μL of a substrate (PNPP) was added to each well to start the reaction.

hIGFIR[L1-L2]/hINSR = molecular target: T7, hIGFIR[L1-L2]/hINSR (human); experiment: Cell ELISA, 10 nM antibody, fixed P3U1 cells expressing the chimera
T7 construct: Chimeric receptor on transfected P3U1 cells
Protocol: (§3) The gene of hIGFIR[L1-L2]/hINSR as Substitution 1 is shown in SEQ ID NO: 23; the gene of hINSR[L1-L2]/hIGFIR as Substitution 2 is shown in SEQ ID NO: 24; the gene of hINSR[L1]/hIGFIR as Substitution 3 is shown in SEQ ID NO: 25; and the gene of hINSR[L2]/hIGFIR as Substitution 4 is shown in SEQ ID NO: 26. After the lipofection, the P3U1 cells were cultured at least overnight and were added to a 96-well plate (coated with poly-D-lysine) at a concentration of 0.8×10⁵ cells/well and immobilized with 10% buffered formalin (Mildform® 10 NM, Wako), followed by blocking with phosphate buffer containing 3% BSA. The plate was used in ELISA.
(§4) In ELISA, 30 μL of an antibody solution adjusted to 10 nM with 0.1% skimmed milk/3% BSA/PBS was added to each well and was subjected to reaction at room temperature for about 1.5 hours. After washing with a washing liquid twice, 30 μL of an anti-mouse-IgG antibody-HRP conjugate solution adjusted to 5 nM with 0.1% skimmed milk/3% BSA/PBS was added to each well and was subjected to reaction at room temperature for about 1 hour. After washing with a washing liquid twice, 50 μL of a substrate (TMB) was added to each well to start the reaction. After about 20 minutes, 50 μL of 0.5 M sulfuric acid was added to each well to stop the reaction. The absorbances at 450 nm and 550 nm were measured, and the difference between absorbance values at 450 nm and 550 nm was calculated. The avidity was calculated based on the difference between absorbance values at 450 nm and 550 nm for cells (Mock cells, SEQ ID NO: 22) transfected with a vector not containing the gene of each substitution as a standard value 1 (Table 3).

hINSR[L2]/hIGFIR = molecular target: T8, hINSR[L2]/hIGFIR (human); experiment: as above
T8 construct: Chimeric receptor on transfected P3U1 cells
Protocol: as §3, §4

[6] = molecular target: T1, wild-type rat IGF-I receptor (FLAG tag, …); experiment: Cell ELISA on HEK 293T cells expressing the receptor
Protocol: HEK 293T cells were seeded in a 10-cm dish coated with poly-D-lysine at 9×10⁶ cells/well. On the next day, each plasmid DNA was transfected into the cells by lipofection. On the following day, the HEK 293T cells were detached with 0.25% trypsin/EDTA and were suspended in a broth. The HEK 293T cells were added to a 96-well plate (coated with poly-D-lysine) at a concentration of 0.8×10⁵ cells/well and were incubated at 37° C. under conditions of 5% CO₂ overnight. The medium was removed from the 96-well plate, and the cells were immobilized with a 10% buffered formalin (Mildform® 10 NM, Wako). The 10% buffered formalin was replaced with a blocking buffer (3% BSA/PBS/sodium azide), and the plate was used in ELISA.
as §2

T1 sequence (P24062 other isoform, or with tags, fused parts or gaps limits assumed): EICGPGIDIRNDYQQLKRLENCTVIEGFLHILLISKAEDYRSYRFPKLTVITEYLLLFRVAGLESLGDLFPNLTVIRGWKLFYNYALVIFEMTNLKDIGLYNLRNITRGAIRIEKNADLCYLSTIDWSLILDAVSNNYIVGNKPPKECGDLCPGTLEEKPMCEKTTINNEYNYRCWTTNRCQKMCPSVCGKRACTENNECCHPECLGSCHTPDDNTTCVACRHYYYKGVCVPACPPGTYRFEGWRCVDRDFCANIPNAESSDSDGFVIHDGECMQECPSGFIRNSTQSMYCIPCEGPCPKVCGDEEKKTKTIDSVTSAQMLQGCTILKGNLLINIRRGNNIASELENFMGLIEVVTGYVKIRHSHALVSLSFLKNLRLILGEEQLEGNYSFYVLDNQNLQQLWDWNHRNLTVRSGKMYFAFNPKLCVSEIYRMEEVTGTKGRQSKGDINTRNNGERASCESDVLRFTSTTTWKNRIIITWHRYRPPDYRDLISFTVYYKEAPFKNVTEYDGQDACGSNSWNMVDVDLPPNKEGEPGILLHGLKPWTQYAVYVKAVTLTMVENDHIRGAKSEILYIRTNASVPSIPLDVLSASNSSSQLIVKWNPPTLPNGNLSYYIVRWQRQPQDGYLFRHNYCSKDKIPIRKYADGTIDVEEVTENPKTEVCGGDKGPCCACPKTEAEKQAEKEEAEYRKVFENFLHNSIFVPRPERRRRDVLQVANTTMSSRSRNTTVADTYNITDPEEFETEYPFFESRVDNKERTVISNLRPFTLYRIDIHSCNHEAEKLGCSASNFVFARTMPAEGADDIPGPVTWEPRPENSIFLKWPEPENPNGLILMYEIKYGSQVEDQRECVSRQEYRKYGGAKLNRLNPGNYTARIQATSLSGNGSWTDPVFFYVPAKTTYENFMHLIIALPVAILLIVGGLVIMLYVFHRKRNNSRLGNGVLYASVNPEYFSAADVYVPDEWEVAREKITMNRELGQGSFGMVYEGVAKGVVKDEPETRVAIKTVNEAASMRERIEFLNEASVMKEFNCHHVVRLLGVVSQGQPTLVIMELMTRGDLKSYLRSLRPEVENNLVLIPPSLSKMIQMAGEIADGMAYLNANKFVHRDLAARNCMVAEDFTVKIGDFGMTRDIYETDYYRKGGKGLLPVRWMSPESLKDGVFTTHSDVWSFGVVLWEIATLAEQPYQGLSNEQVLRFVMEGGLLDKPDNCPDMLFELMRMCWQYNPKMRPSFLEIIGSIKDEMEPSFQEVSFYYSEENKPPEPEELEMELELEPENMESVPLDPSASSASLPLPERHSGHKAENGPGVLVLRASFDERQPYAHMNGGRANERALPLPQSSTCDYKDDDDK

B1: IGF11-16 (antibody, mouse IgG1, kappa, V domains shown)
VH: QIQLQQPGAELVKPGASVKLSCKAPGYTFTSYWMHWVKQRPGQGLEWIGETNPSNSVTNYNEKFKSKATLTVDKSSSTAYMQLSSLTSEDSAVYYCTIGRGRGFAYWGQGTLVTVSA
VL: DIQMNQSPSSLSASLGDTITITCRASQNINFWLSWCQQKPGNIPKLLIYKASNLHTGVPSRFSGSGSGTDFTLTISSLQPEDIATYYCLQGQSYPYTFGGGTKLEIKR
notes: no cleavage site is stated; also called IGF-I receptor agonist antibody; IGF11-16 antibody
Which results are given for B1?
absorbance at 450 nm [1]: ~1 absorbance at 450 nm; absorbance at 450 nm [2]: ≥ 2 absorbance at 450 nm; absorbance at 450 nm [3]: ≥ 2 absorbance at 450 nm; absorbance at 450 nm [4]: ≥ 2 absorbance at 450 nm; absorbance at 450 nm [5]: ~1 absorbance at 450 nm; binding result (human insulin receptor): no binding (tested: 0.5 nM and 5 nM; 1.5-fold of Mock cells); Avidity (absorbance difference 450-550 nm, Mock cells = 1) (hIGFIR[L1-L2]/hINSR): 5.5 fold of Mock cells; Avidity (absorbance difference 450-550 nm, Mock cells = 1) (hINSR[L2]/hIGFIR): 5.6 fold of Mock cells; binding result [6]: no binding (tested: 1 nM)
